Measured values as given in patent US20130156761A1.

Target: human CX3CR1 with FLAG tag at N-terminus, stably expressed on HEK293T cells (Multispan) (human) (UniProt P49238)
Assay: cell-based or functional assay

human CX3CR1 with FLAG tag at N-terminus, stably expressed on HEK293T cells (Multispan) (human), sequence (P49238 whole entry): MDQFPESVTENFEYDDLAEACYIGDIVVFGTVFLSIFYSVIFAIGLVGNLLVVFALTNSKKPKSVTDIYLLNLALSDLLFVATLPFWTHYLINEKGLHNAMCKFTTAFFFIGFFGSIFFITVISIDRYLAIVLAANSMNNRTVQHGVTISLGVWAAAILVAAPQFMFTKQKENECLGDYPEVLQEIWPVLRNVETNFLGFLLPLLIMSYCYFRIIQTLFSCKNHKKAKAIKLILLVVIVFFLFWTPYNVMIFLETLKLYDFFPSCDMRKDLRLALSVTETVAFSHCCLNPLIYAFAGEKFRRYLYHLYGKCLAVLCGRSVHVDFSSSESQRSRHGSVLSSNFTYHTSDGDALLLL

In the case of “CX3CL1 (control agonist, Peprotech Cat#300-31) (from UniProt P78423 25-100) (ligand)”, the EC80 of calcium flux is reported as 0.04 µM.
